Values belong to the molecule of their own block, whether it stands above or below them.
T1: recombinant Rim4(PxLm)-His6 (S. cerevisiae, UniProt P38741 1-713, P454E455L456 to A454E455G456)
T1 sequence (looked up): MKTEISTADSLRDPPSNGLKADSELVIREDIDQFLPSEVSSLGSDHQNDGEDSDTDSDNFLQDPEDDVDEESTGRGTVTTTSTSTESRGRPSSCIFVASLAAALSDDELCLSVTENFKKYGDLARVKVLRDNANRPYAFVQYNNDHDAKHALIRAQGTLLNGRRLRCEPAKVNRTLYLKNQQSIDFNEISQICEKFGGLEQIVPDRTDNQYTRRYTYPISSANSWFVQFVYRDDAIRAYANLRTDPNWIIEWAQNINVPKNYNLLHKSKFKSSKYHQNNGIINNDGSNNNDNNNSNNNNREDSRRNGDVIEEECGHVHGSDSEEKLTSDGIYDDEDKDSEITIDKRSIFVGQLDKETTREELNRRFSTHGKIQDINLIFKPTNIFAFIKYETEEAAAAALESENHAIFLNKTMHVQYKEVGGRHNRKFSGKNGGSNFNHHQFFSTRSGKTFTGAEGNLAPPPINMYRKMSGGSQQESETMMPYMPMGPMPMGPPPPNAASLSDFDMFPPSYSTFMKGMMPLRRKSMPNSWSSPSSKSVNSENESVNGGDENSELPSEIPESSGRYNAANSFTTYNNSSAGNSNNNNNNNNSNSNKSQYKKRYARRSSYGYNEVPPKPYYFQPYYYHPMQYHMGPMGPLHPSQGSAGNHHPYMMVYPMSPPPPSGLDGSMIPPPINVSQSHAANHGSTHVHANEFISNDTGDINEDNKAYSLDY

T2: Bmh1 (S. cerevisiae (endogenous in W303 …, UniProt P29311 1-267))
T2 sequence (looked up): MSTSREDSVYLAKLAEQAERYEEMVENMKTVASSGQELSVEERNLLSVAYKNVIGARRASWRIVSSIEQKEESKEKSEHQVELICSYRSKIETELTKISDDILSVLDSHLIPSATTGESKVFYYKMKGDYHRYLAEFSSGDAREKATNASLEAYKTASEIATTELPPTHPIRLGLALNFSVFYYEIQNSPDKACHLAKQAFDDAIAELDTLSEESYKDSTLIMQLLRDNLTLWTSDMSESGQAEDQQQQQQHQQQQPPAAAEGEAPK

B1: recombinant 6His-3FLAG-Cdc14 (enzyme, S. cerevisiae, UniProt Q00684 1-551, looked up)
chain: MRRSVYLDNTIEFLRGRVYLGAYDYTPEDTDELVFFTVEDAIFYNSFHLDFGPMNIGHLYRFAVIFHEILNDPENANKAVVFYSSASTRQRANAACMLCCYMILVQAWTPHQVLQPLAQVDPPFMPFRDAGYSNADFEITIQDVVYGVWRAKEKGLIDLHSFNLESYEKYEHVEFGDFNVLTPDFIAFASPQEDHPKGYLATKSSHLNQPFKSVLNFFANNNVQLVVRLNSHLYNKKHFEDIGIQHLDLIFEDGTCPDLSIVKNFVGAAETIIKRGGKIAVHCKAGLGRTGCLIGAHLIYTYGFTANECIGFLRFIRPGMVVGPQQHWLYLHQNDFREWKYTTRISLKPSEAIGGLYPLISLEEYRLQKKKLKDDKRVAQNNIEGELRDLTMTPPSNGHGALSARNSSQPSTANNGSNSFKSSAVPQTSPGQPRKGQNGSNTIEDINNNRNPTSHANRKVVIESNNSDDESMQDTNGTSNHYPKVSRKKNDISSASSSRMEDNEPSATNINNAADDTILRQLLPKNRRVTSGRRTTSAAGGIRKISGSIKK
B2: recombinant Rim4(ΔC289)-His6 (domain or fragment, S. cerevisiae, UniProt P38741 1-424, looked up)
chain: MKTEISTADSLRDPPSNGLKADSELVIREDIDQFLPSEVSSLGSDHQNDGEDSDTDSDNFLQDPEDDVDEESTGRGTVTTTSTSTESRGRPSSCIFVASLAAALSDDELCLSVTENFKKYGDLARVKVLRDNANRPYAFVQYNNDHDAKHALIRAQGTLLNGRRLRCEPAKVNRTLYLKNQQSIDFNEISQICEKFGGLEQIVPDRTDNQYTRRYTYPISSANSWFVQFVYRDDAIRAYANLRTDPNWIIEWAQNINVPKNYNLLHKSKFKSSKYHQNNGIINNDGSNNNDNNNSNNNNREDSRRNGDVIEEECGHVHGSDSEEKLTSDGIYDDEDKDSEITIDKRSIFVGQLDKETTREELNRRFSTHGKIQDINLIFKPTNIFAFIKYETEEAAAAALESENHAIFLNKTMHVQYKEVGGRH
B3: Bmh2 (natural protein, UniProt P34730 1-273, looked up)
chain: MSQTREDSVYLAKLAEQAERYEEMVENMKAVASSGQELSVEERNLLSVAYKNVIGARRASWRIVSSIEQKEESKEKSEHQVELIRSYRSKIETELTKISDDILSVLDSHLIPSATTGESKVFYYKMKGDYHRYLAEFSSGDAREKATNSSLEAYKTASEIATTELPPTHPIRLGLALNFSVFYYEIQNSPDKACHLAKQAFDDAIAELDTLSEESYKDSTLIMQLLRDNLTLWTSDISESGQEDQQQQQQQQQQQQQQQQQAPAEQTQGEPTK

Columns and labels:
[1] = biological target: Rim4-FLAG (S. cerevisiae) (UniProt P38741); assay: mass photometry
[2] = biological target: recombinant Bmh1-EGFP-His6 (S. cerevisiae) (UniProt P29311); assay: pull-down
[3] = biological target: recombinant Bmh1/2-EGFP-His6 (S. cerevisiae) (UniProt P29311); assay: pull-down
[4] = biological target: recombinant Bmh2-EGFP-His6 (S. cerevisiae) (UniProt P34730); assay: pull-down
[5] = biological target: T1, recombinant Rim4(PxLm)-His6; assay: pull-down
[6] = biological target: B1; assay: pull-down
Bmh1 = biological target: T2, Bmh1; assay: mass photometry

stoichiometry N [1]: 1
Molecule: Bmh1 (from UniProt P29311 1-267) (natural protein)

stoichiometry N [1]: 1
Molecule: Bmh2 (from UniProt P34730 1-273) (natural protein)

mole ratio in the pull-down, printed 2.5:1 [2]: 2.5
mole ratio in the pull-down, printed 2.5:1 [3]: 2.5
mole ratio in the pull-down, printed 2.5:1 [4]: 2.5
Molecule: PKA-treated Rim4-His6 (Rim4-BBS-p) (from UniProt P38741 1-713) (natural protein)

Molecule: B1
binding result [5]: binds

Molecule: B2
binding result [6]: binds

Molecule: B3
stoichiometry N (Bmh1): 1

Source: article PMC10591911 (Cell reports, 2023)
